Laboratory results published in IntAct's records for PubMed 22578008.

B1: E3 ubiquitin-protein ligase NHLRC1 (Homo sapiens), Q6VVB1 (parent)
chain: MAAEASESGPALHELMREAEISLLECKVCFEKFGHRQQRRPRNLSCGHVVCLACVAALAHPRTLALECPFCRRACRGCDTSDCLPVLHLIELLGSALRQSPAAHRAAPSAPGALTCHHTFGGWGTLVNPTGLALCPKTGRVVVVHDGRRRVKIFDSGGGCAHQFGEKGDAAQDIRYPVDVTITNDCHVVVTDAGDRSIKVFDFFGQIKLVIGGQFSLPWGVETTPQNGIVVTDAEAGSLHLLDVDFAEGVLRRTERLQAHLCNPRGVAVSWLTGAIAVLEHPLALGTGVCSTRVKVFSSSMQLVGQVDTFGLSLYFPSKITASAVTFDHQGNVIVADTSGPAILCLGKPEEFPVPKPMVTHGLSHPVALTFTKENSLLVLDTASHSIKVYKVDWG
partner: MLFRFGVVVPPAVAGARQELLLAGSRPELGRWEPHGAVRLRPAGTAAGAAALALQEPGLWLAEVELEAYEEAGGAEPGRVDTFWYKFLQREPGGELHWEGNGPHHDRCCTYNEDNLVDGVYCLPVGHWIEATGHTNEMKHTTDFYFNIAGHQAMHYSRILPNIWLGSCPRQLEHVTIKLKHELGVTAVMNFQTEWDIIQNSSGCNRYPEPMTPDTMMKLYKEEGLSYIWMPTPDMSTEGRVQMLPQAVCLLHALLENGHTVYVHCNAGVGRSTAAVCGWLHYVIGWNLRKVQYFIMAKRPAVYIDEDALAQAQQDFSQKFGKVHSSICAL
B2: Laforin (Mus musculus), Q9WUA5 (parent)
chain: B1 partner
partner: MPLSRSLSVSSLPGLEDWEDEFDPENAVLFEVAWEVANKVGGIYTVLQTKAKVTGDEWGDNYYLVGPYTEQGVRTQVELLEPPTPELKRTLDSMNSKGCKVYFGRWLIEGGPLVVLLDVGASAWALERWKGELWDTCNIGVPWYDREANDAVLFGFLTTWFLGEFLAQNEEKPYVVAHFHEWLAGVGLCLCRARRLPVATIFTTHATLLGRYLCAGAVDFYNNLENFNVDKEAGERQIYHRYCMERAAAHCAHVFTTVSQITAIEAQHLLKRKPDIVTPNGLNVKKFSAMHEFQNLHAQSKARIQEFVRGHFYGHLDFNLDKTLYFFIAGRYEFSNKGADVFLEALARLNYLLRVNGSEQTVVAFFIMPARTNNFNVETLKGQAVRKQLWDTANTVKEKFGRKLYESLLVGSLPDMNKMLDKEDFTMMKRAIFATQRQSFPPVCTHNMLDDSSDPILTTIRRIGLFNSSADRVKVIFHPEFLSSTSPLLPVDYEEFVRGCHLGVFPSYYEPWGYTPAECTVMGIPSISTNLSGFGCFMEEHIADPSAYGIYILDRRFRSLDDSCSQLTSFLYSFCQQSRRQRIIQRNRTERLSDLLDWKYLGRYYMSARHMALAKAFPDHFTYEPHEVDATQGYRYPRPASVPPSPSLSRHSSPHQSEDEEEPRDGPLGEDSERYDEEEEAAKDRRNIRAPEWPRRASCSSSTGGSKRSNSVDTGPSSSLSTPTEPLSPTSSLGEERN

Variants of: B1
Details: with epm2a_mouse Epm2a

Q: Which “effect of a mutation on the interaction” value does the source give for E280K here?
A: Its value is “disrupting interaction”.

Variants of: B1
Details: with epm2a_mouse Epm2a
Remark: another data set of the same source

Q: Which “effect of a mutation on the interaction” value does the source give for Q302P here?
A: The value was “decreasing interaction”.

Variants of: B1
Details: with epm2a_mouse Epm2a
Remark: another data set of the same source

Q: Which “effect of a mutation on the interaction” value does the source give for P264H here?
A: Its value is “disrupting interaction”.

Variants of: B1
Details: with epm2a_mouse Epm2a
Remark: another data set of the same source

Q: For I198N, which “effect of a mutation on the interaction” value is on record?
A: Its value is “disrupting interaction”.

Variants of: B1
Details: with epm2a_mouse Epm2a
Remark: another data set of the same source

Q: With L87P as the variant, how does the “effect of a mutation on the interaction” value read?
A: Its value is “decreasing interaction”.

Variants of: B1
Details: with epm2a_mouse Epm2a
Remark: another data set of the same source

Q: C26S was tested. Which “effect of a mutation on the interaction” value did it give?
A: The value was “decreasing interaction”.

Variants of: B1
Details: with epm2a_mouse Epm2a
Remark: another data set of the same source

Q: D146N was tested. Which “effect of a mutation on the interaction” value did it give?
A: The value was “disrupting interaction”.

Variants of: B1
Details: with epm2a_mouse Epm2a
Remark: another data set of the same source

Q: Which “effect of a mutation on the interaction” value does the source give for D233A here?
A: The value was “disrupting interaction”.

Variants of: B2
Details: with gys1_mouse Gys1, Q9Z1E4

Q: How did the “effect of a mutation on the interaction” value turn out when C265S was run?
A: Its value is “increasing interaction”.
